How the values were obtained:
[1] = biological target: T1, recombinant human CD3 epsilon/delta heterodimer (human, UniProt P07766 23-126; P04234 22-105); test: Octet BLI, mAb on FAB2G sensor, hCD3 E/D 200-50 nM; R^2 1.00
T1 construct: Recombinant protein in solution (200-50 nM) in the Octet assay; also called hCD3 E/D; human CD3E/D

[2] = biological target: T2, recombinant human CD3 epsilon/gamma heterodimer (human, UniProt P07766 23-126; P09693 23-116); test: Octet BLI, mAb on FAB2G sensor, hCD3 E/G 200-50 nM; R^2 0.94
T2 construct: Recombinant protein in solution (200-50 nM) in the Octet assay; also called hCD3 E/G
T2 sequence (P07766 23-126, chain 1 of 2): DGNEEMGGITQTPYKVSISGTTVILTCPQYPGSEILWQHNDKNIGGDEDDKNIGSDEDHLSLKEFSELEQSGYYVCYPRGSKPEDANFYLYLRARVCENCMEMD
T2 sequence (P09693 23-116, chain 2 of 2): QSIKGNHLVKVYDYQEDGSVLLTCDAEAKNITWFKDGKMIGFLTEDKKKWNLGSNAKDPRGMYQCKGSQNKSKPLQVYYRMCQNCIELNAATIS
Protocol: (§1) Samples were evaluated by flow cytometry analysis against Jurkat and human Pan-T cells (FIG. 1B) as well as by Octet against recombinant human CD3 proteins to evaluate apparent affinities and binding off-rates (Table 6, infra).

[3] = biological target: T1, recombinant human CD3 epsilon/delta …; test: Octet BLI, mAb on FAB2G sensor, hCD3 E/D 200-50 nM; R^2 0.97
Protocol: as §1

[4] = biological target: T2, recombinant human CD3 epsilon/gamma …; test: Octet BLI, mAb on FAB2G sensor, hCD3 E/G 200-50 nM; R^2 1.00
Protocol: as §1

[5] = biological target: T3, CD3 on Jurkat wild-type cells (UniProt P07766 23-207; P04234 22-171; P09693 23-182); test: flow cytometry on Jurkat WT cells, antibody at 1 ug/ml
T3 construct: whole, on cells; also called Jurkat WT
T3 sequence (P07766 23-207, chain 1 of 3): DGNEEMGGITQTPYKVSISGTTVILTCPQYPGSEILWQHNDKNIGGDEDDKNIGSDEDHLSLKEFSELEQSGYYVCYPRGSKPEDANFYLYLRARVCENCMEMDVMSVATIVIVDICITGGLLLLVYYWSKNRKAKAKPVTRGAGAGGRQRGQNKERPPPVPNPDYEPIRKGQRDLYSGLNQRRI
T3 sequence (P04234 22-171, chain 2 of 3): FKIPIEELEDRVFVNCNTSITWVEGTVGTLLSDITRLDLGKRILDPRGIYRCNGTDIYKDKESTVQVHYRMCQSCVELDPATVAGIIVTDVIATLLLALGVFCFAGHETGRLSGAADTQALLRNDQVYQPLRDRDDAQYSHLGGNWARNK
T3 sequence (P09693 23-182, chain 3 of 3): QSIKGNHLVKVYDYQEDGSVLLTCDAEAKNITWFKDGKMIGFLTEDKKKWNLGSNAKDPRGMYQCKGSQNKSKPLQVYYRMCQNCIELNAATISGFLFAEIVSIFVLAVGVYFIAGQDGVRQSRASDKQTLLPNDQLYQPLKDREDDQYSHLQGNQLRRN

[6] = biological target: T4, CD33 on KILR-HL60 cells (UniProt P20138 18-364, limits assumed); test: flow cytometry on KILR-HL60 (CD33 expressing) cells, antibody at 10 ug/ml
T4 construct: whole, on cells; Target of the gemtuzumab arm; also called CD33 expressing cells
T4 sequence (P20138 18-364 limits assumed): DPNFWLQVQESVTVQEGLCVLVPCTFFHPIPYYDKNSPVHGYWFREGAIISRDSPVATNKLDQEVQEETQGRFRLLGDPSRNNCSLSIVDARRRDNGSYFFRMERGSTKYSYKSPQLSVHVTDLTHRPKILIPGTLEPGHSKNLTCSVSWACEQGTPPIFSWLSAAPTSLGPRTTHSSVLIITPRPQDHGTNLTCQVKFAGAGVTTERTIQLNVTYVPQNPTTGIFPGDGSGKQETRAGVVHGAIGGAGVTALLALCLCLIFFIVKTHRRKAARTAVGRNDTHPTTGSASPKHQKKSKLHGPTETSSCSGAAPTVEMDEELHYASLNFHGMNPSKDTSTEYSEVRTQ

[7] = biological target: T3, CD3 on Jurkat wild-type cells; test: flow cytometry on Jurkat WT cells, antibody at 10 ug/ml
[8] = biological target: T4, CD33 on KILR-HL60 cells; test: flow cytometry on KILR-HL60 (CD33 expressing) cells, antibody at 1 ug/ml
[9] = biological target: T2, recombinant human CD3 epsilon/gamma …; test: Octet BLI, mAb on FAB2G sensor, hCD3 E/G 200-50 nM; R^2 0.98
Protocol: as §1

T1 sequence (P07766 23-126, stated change not applied, chain 1 of 2): as the sequence (P07766 23-126, chain 1 of 2) above
T1 sequence (P04234 22-105, stated change not applied, chain 2 of 2): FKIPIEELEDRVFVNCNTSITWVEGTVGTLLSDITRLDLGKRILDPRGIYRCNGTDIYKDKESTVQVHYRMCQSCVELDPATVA

Row | Binder | Kd [1] [nM] | Response [1] | koff [1] [s⁻¹] | kon [1] [M⁻¹ s⁻¹] | Kd [2] [nM] | Response [2] | koff [2] [s⁻¹] | kon [2] [M⁻¹ s⁻¹] | flow cytometry signal [5] | flow cytometry signal [6] | flow cytometry signal [7] | flow cytometry signal [8] | other results
1 | ABL-CD3-1 (antibody, V domains shown, Chimeric hybridoma mAb: human V, CH1, upper hinge; mouse middle hinge, CH2, CH3) VH: EVQLVESGGGLVKPGGSLRLSCAASGFTLSSYSMNWVRQAPGKGLEWVSSISRSGSYIYYADSVKGRFTISRDNAKNSLYLQMNSLRAEDTAVYYCAREKWELLYFDYWGQGTLVTVSS VL: NFMLTQPHSVSESPGKTVTISCTRSSGSIASNYVQWYQQRPGSSPTTVIYEDNQRPSGVPDRFSGSIDSSSNSASLTISGLKTEDEADYYCQSYDSSNRVFGGGTKLTVL | 108 | 0.31 | 0.0157 | 145000 | 1210 | 0.07 | 0.171 | 142000 |  |  |  |  | 
2 | ABL-CD3-58 (antibody, V domains shown, Chimeric hybridoma mAb: human V, CH1, upper hinge; mouse middle hinge, CH2, CH3) VH: EVQLVESGGGLVKPGGSLRLSCVVSGFTFSNYNMNWVRQAPGKGLEWVSSSSRSSYIYYADSVKGRFTISRDNAKNSLYLQMNSLRAEDTAIYYCAREKWELLFFDYWGQGTLVTVSS VL: NFMLTQPHSVSESPGKTVTISCTRSSGSIASNFVQWYQQRPGSSPTTVIYEDNQRPSGVPDRFSGSIDSSSNSASLTISGLKTEDEADYYCQSFDSSNRVFGGGTKLTVL | 44.1 | 0.57 | 0.00265 | 60100 | 45.2 | 0.28 | 0.00705 | 156000 |  |  |  |  | 
3 | ABL-CD3-14 (antibody, V domains shown, Chimeric hybridoma mAb: human V, CH1, upper hinge; mouse middle hinge, CH2, CH3) VH: EVQLVESGGGLVKPGGSLRLSCAASGFTCSSYSMTWVRQAPGKGLEWVSSISRRSSYIYYADSVKGRFTISRDNAKNSLYLQLNSLRAEDTAVYYCARERWELLYFDYWGQGTLVTVSS VL: NFMLTQPHSVSESPGKTVTISCTRSSGSIASNYVQWYQQRPGSSPTTVIYEDNQRPSGVPDRFSGSIDSSSNSASLTISGLKTEDEADYYCQSYDSSNRVFGGGTKLTVL |  |  |  |  | 9.66 | 0.08 | 0.00287 | 298000 |  |  |  |  | Kd [3]: 12.8 nM; Response [3]: 0.17; koff [3]: 0.00152 s⁻¹; kon [3]: 119000 M⁻¹ s⁻¹
4 | ABL-CD3-19 (antibody, V domains shown, Chimeric hybridoma mAb: human V, CH1, upper hinge; mouse middle hinge, CH2, CH3) VH: EVQLVESGGGLVKPGGSLRLSCAASGFTLSSYSMNWVRQAPGKGLEWVSSISRSSSYIYYADSVKGRFTISRDNAKNSLYLQMNSLRAEDTAVYYCARERWELLYFDYWGQGTLVTVSS VL: NFMLTQPHSVSESPGKTVTISCTRSSGSIASNYVQWYQQRPGSSPTTVIYEDNQRPSGVPDRFSGSIDSSSNSASLTISGLKTEDEADYYCQSFDNSNRVFGGGTKLTVL | 23.3 | 0.6 | 0.00191 | 81700 |  |  |  |  |  |  |  |  | Kd [4]: 62.9 nM; Response [4]: 0.4; koff [4]: 0.00665 s⁻¹; kon [4]: 106000 M⁻¹ s⁻¹
5 | CD3 × CD33-BspAb36 (bispecific antibody) scFv-Fc: not shown heavy: EVQLVQSGAEVKKPGSSVKVSCKASGYTITDSNIHWVRQAPGQSLEWIGYIYPYNGGTDYNQKFKNRATLTVDNPTNTAYMELSSLRSEDTAFYYCVNGNPWLAYWGQGTLVTVSSASTKGPSVFPLAPSSKSTSGGTAALGCLVKDYFPEPVTVSWNSGALTSGVHTFPAVLQSSGLYSLSSVVTVPSSSLGTQTYICNVNHKPSNTKVDKRVEPKSCDKTHTCPPCPAPEFEGGPSVFLFPPKPKDTLMISRTPEVTCVVVDVSHEDPEVKFNWYVDGVEVHNAKTKPREEQYNSTYRVVSVLTVLHQDWLNGKEYKCKVSNKALPASIEKTISKAKGQPREPQVCTLPPSREEMTKNQVSLSCAVKGFYPSDIAVEWESNGQPENNYKTTPPVLDSDGSFFLVSKLTVDKSRWQQGNVFSCSVMHEALHNRFTQKSLSLSPGK light: DIQLTQSPSTLSASVGDRVTITCRASESLDNYGIRFLTWFQQKPGKAPKLLMYAASNQGSGVPSRFSGSGSGTEFTLTISSLQPDDFATYYCQQTKEVPWSFGQGTKVEVKRTVAAPSVFIFPPSDEQLKSGTASVVCLLNNFYPREAKVQWKVDNALQSGNSQESVTEQDSKDSTYSLSSTLTLSKADYEKHKVYACEVTHQGLSSPVTKSFNRGEC |  |  |  |  |  |  |  |  | 12500 | 746000 | 26100 | 569000 | 
6 | CD3 × CD33-BspAb39 (bispecific antibody) chain 1: not shown chain 2: EVQLVQSGAEVKKPGSSVKVSCKASGYTITDSNIHWVRQAPGQSLEWIGYIYPYNGGTDYNQKFKNRATLTVDNPTNTAYMELSSLRSEDTAFYYCVNGNPWLAYWGQGTLVTVSSASTKGPSVFPLAPSSKSTSGGTAALGCLVKDYFPEPVTVSWNSGALTSGVHTFPAVLQSSGLYSLSSVVTVPSSSLGTQTYICNVNHKPSNTKVDKRVEPKSCDKTHTCPPCPAPEFEGGPSVFLFPPKPKDTLMISRTPEVTCVVVDVSHEDPEVKFNWYVDGVEVHNAKTKPREEQYNSTYRVVSVLTVLHQDWLNGKEYKCKVSNKALPASIEKTISKAKGQPREPQVCTLPPSREEMTKNQVSLSCAVKGFYPSDIAVEWESNGQPENNYKTTPPVLDSDGSFFLVSKLTVDKSRWQQGNVFSCSVMHEALHNRFTQKSLSLSPGK chain 3: DIQLTQSPSTLSASVGDRVTITCRASESLDNYGIRFLTWFQQKPGKAPKLLMYAASNQGSGVPSRFSGSGSGTEFTLTISSLQPDDFATYYCQQTKEVPWSFGQGTKVEVKRTVAAPSVFIFPPSDEQLKSGTASVVCLLNNFYPREAKVQWKVDNALQSGNSQESVTEQDSKDSTYSLSSTLTLSKADYEKHKVYACEVTHQGLSSPVTKSFNRGEC |  |  |  |  |  |  |  |  | 2160 | 572000 | 2740 | 541000 | 
7 | CD3 × CD33-BspAb38 (bispecific antibody) scFv-Fc: not shown heavy: EVQLVQSGAEVKKPGSSVKVSCKASGYTITDSNIHWVRQAPGQSLEWIGYIYPYNGGTDYNQKFKNRATLTVDNPTNTAYMELSSLRSEDTAFYYCVNGNPWLAYWGQGTLVTVSSASTKGPSVFPLAPSSKSTSGGTAALGCLVKDYFPEPVTVSWNSGALTSGVHTFPAVLQSSGLYSLSSVVTVPSSSLGTQTYICNVNHKPSNTKVDKRVEPKSCDKTHTCPPCPAPEFEGGPSVFLFPPKPKDTLMISRTPEVTCVVVDVSHEDPEVKFNWYVDGVEVHNAKTKPREEQYNSTYRVVSVLTVLHQDWLNGKEYKCKVSNKALPASIEKTISKAKGQPREPQVCTLPPSREEMTKNQVSLSCAVKGFYPSDIAVEWESNGQPENNYKTTPPVLDSDGSFFLVSKLTVDKSRWQQGNVFSCSVMHEALHNRFTQKSLSLSPGK light: DIQLTQSPSTLSASVGDRVTITCRASESLDNYGIRFLTWFQQKPGKAPKLLMYAASNQGSGVPSRFSGSGSGTEFTLTISSLQPDDFATYYCQQTKEVPWSFGQGTKVEVKRTVAAPSVFIFPPSDEQLKSGTASVVCLLNNFYPREAKVQWKVDNALQSGNSQESVTEQDSKDSTYSLSSTLTLSKADYEKHKVYACEVTHQGLSSPVTKSFNRGEC |  |  |  |  |  |  |  |  | 23700 | 476000 | 34100 | 635000 | 
8 | ABL-CD3-38 (antibody, V domains shown, Chimeric hybridoma mAb: human V, CH1, upper hinge; mouse middle hinge, CH2, CH3) VH: QGQLQQWGAGLLKPSETLSLTCAVYGGSFSGYYWSWIRLPPGKGLEWIGEINHSGNTNYNPSLKSRVTISVDTSKNQFSLQLSSVTAADTAVYYCAKEVEIWGYFDYWGQGTLVTVSS VL: QSVLTQPPSVSGAPGQRVTISCTGSSSNIGAGYDVHWYQQLPGTAPKLLIYGNSNRPSGVPDRFSGSKSGTSASLAITGLQAEDETDYNCQSYDSSLSGYVFGTGTKVTVL |  |  |  |  |  |  |  |  |  |  |  |  | Kd [9]: 1.36 nM; Response [9]: 0.73; koff [9]: 0.000331 s⁻¹; kon [9]: 243000 M⁻¹ s⁻¹; Kd [3]: 1.41 nM; Response [3]: 0.73; koff [3]: 0.00035 s⁻¹; kon [3]: 248000 M⁻¹ s⁻¹

Source: patent publication US20260167721A1 (ABLEXIS, published 2026)
